In patent publication US20220073922A1 one finds Kd and IC50 data, which are given here for 1 substance.

The target of assay [1] is human VEGF-121 (human) (UniProt P15692). The assay is described as follows: magnetic-bead partitioning binding assay read by flow cytometry; bound fraction against VEGF-121 concentration (1e-12 to about 1e-8 M), Langmuir one-site fit; how Lucentis was immobilised is not described. For orientation: Flow cytometry measures light scatter and fluorescence of single cells or particles in a stream.
Sequence of human VEGF-121 (human) (P15692 other isoform, or with tags, fused parts or gaps limits assumed): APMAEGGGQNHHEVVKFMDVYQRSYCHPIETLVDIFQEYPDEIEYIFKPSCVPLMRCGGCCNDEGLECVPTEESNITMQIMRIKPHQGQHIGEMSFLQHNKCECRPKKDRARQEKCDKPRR

Assay [2] shares this target. The assay is described as follows: receptor competition assay: His-tagged human VEGF-121 (0.1 nM) on beads with 1 nM human VEGF Receptor 2 and varied Lucentis; bound receptor fraction by flow cytometry, dose-response inhibition fit; blocked partner: VEGF Receptor 2.
Assay [3] shares this target. The assay is described as follows: receptor competition assay: His-tagged human VEGF-121 (0.1 nM) on beads with 1 nM human VEGF Receptor 1 and varied Lucentis; bound receptor fraction by flow cytometry, dose-response inhibition fit; blocked partner: VEGF Receptor 1.

One may read the Kd as the equilibrium constant for the complex coming apart. Read a high Kd as weaker binding. One may read the IC50 as the concentration that gives 50% inhibition. Low readings indicate higher potency, high ones lower potency.

As for Lucentis® (Fab), the Kd with human VEGF-121 (human) [1] stood at 1.69 nM. Besides, the results for the IC50 with human VEGF-121 (human) [2] and with human VEGF-121 (human) [3] were 2.36 nM and 5.58 nM, respectively.
